Results from patent US20200129582A1, “NOVEL PEPTIDES AND PEPTIDOMIMETICS” (UNIVERSITY OF AUCKLAND, priority 2016, published 2020).
Residues, ends and D or L forms follow the SMILES beside them.

Experiments:
[1] = molecular target: T1, coupled gap junction channels in hCMVEC cells (Homo sapiens, UniProt P17302); format: cell-based; settings: hCMVEC, 100 μM, FIG. 5
T1 construct: A confluent monolayer of hCMVECs was pre-incubated in Peptide5; endogenous in cells; host or cells: hCMVEC
Description: (§1) The hCMVEC cells were plated in 1 μg/cm^2 collagen I (Gibco) 12-well plate at a density of 0.4×10^6 cells per well, and cultured overnight. A confluent monolayer of hCMVECs was pre-incubated in Peptide5 (5-100 μM) dissolved in culture medium for 2 hours or 24 hours. CBX at a concentration of 100 μM was used as a positive control. Cells were washed three times with phosphate buffered saline (PBS) without Ca^2+ or Mg^2+. The cells were then incubated in 0.05% Lucifer Yellow (LY) (Sigma), a fluorescent dye that is transferred through coupled gap junction channels (el-Fouly et al., 1987, Experimental cell research 168:422-430), +/−Peptide5 dissolved in PBS, and scrape-wounded with a size 10 carbon steel surgical blade (Swann-Morton, England). Following 5-minute incubation at 37° C. in 95% O2 and 5% CO2 without light, the 0.05% LY solution was removed. Cells were rinsed four times with PBS with Ca^2+ or Mg^2+, and then fixed in 4% paraformaldehyde (PFA) in PBS at pH 7.4 for 10 minutes at room temperature. Cells were then washed 3 times in PBS to remove PFA before fluorescent imaging. Fluorescent images were visualised using a Nikon TE2000E inverted fluorescent microscope (10× magnification, 0.3 numerical aperture), and captured using a Digital Sight CCD camera and Eclipse Net software (Nikon). Three images within each well from three independent experiments were taken for analysis and the total number of cells showing dye uptake from those that had been loaded were counted manually by masked observers.
as §1, with “1987),” for “1987, Experimental cell research 168:422-430),”

[2] = molecular target: T2, hemichannel-mediated ATP release from hCMVEC cells (Homo sapiens, UniProt P17302); assay: In vitro ischemia injury ATP release assay (single alanine substituted and truncated peptides); format: cell-based
T2 construct: endogenous in cells; host or cells: hCMVEC (human cerebral microvascular endothelial cells)
T2 sequence (P17302 2-382 limits assumed): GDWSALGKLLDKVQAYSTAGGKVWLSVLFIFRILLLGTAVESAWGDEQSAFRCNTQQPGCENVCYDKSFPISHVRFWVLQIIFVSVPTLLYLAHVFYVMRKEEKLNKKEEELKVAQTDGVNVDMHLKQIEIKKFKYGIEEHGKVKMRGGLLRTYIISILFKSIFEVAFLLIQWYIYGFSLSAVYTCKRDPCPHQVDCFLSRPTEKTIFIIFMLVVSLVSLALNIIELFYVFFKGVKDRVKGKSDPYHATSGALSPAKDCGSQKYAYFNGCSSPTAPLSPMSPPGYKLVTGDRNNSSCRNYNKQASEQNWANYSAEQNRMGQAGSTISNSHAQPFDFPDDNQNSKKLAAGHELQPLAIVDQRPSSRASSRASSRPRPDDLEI
Description: The human cerebral endothelial cells (hCMVEC) were plated at a density of 0.025×10^6 cells per well in a collagen-coated 12-well plate (1 μg/cm^2) a day prior to the experiment. Cells were incubated in culture medium overnight. Hypoxic, acidic, ion-shifted Ringer injury solution that mimics ionic concentrations and acid-base shifts of the interstitial space in hypoxic-ischemic brains (Bondarenko and Chesler, 2001, […]) was used to trigger hemichannel opening. The injury solution contained (in mM): 38 NaCl, 13 NaHCO3, 3 Na-gluconate, 65 K-gluconate, 38 NMDG-Cl, 1 NaH2PO4, and 1.5 MgCl2. The injury solution was bubbled in 95% N2, 5% CO2 gas (20 L/min) for 5 minutes and pH adjusted to 6.6 before use. The standard ringer solution contained (in mM): 124 NaCl, 3 KCl, 26 NaHCO3, 26 NaHCO3, 1 NaH2PO4, 1.3 CaCl2, 1.5 MgCl2, and 10 Glucose, and pH adjusted to 7.4 before use (Bondarenko and Chesler, 2001). In the ischemia injury model, hCMVEC cells were incubated for 2 hours in 500 μL injury solution+/−Peptide5 (100 μM) (O'Carroll et al., 2008, Cell communication & adhesion 15:27-42; Danesh-Meyer et al., 2012, Brain: a journal of neurology 135:506-520; Davidson et al., 2012, Annals of neurology 71:121-132; Davidson et al., 2013, Experimental neurology 248:301-308; Davidson et al., 2014, PloS one 9:e96558; Davidson et al., 2015, J Cereb Blood Flow Metab), or +/−extracellular loop sequences (Table 5), or modified peptides (Table 2, 3) dissolved in injury solution (500 μL) with a final concentration of 100 μM. For negative control, hCMVEC cells were incubated only in 500 μL standard ringer solution for 2 hours. For positive control, hCMVEC cells were incubated only in 500 μL […] for 2 hours. All incubations were conducted at 37° C. in 95% O2 and 5% CO2. At the end of each experiment, samples were removed and immediately placed on ice. The concentration of ATP in the samples was determined using a Luciferin/luciferase bioluminescence reaction (ATP Determination Kit, Molecular Probes) and detected using a luminescence plate reader (VICTOR X, Perkin Elmer #2030-0010). Standard curves were generated in each experiment from an ATP standard (0 to 500 nM) to convert bioluminescence units to ATP concentration. […] The data is presented as mean±standard error relative to the injury or injury-reperfusion positive control. Statistically significant differences between samples were tested using one-way analysis of variance and Tukey's multiple comparisons test.
Peptides listed in table 5 and 2 were assessed using the ischemia injury model in hCMVEC cells as described above, and the medium was collected for ATP release measurement.
The human cerebral endothelial cells (hCMVEC) were plated at a density of 0.025×10^6 cells per well in a collagen-coated 12-well plate (1 μg/cm^2) a day prior to the experiment. Cells were incubated in culture medium overnight. Hypoxic, acidic, ion-shifted Ringer injury solution that mimics ionic concentrations and acid-base shifts of the interstitial space in hypoxic-ischemic brains (Bondarenko and Chesler, 2001) was used to trigger hemichannel opening. The injury solution contained (in mM): 38 NaCl, 13 NaHCO3, 3 Na-gluconate, 65 K-gluconate, 38 NMDG-Cl, 1 NaH2PO4, and 1.5 MgCl2. The injury solution was bubbled in 95% N2, 5% CO2 gas (20 L/min) for 5 minutes and pH adjusted to 6.6 before use. The standard ringer solution contained (in mM): 124 NaCl, 3 KCl, 26 NaHCO3, 26 NaHCO3, 1 NaH2PO4, 1.3 CaCl2, 1.5 MgCl2, and 10 Glucose, and pH adjusted to 7.4 before use (Bondarenko and Chesler, 2001).

Solubility in miliQ H2O = format: physicochemical
Description: For cell scrape load—dye coupling assays of gap junctions, induced protein distribution changes and ATP release studies of hemichannel block, Connexin43 mimetic peptide (Peptide5, sequence VDCFLSRPTEKT (SEQ ID NO: 45)) (Auspep, Australia) was synthesized at purity >95% and dissolved in miliQ H2O at a stock concentration of 10 mM. For competition assays extracellular loop matching peptides were custom synthesised and dissolved in miliQ H2O at a stock concentration of 1 mM according to purity supplied by the manufacturer (Auspep, Australia). For Peptide5 sequence substitution studies, peptides were generated in the School of Chemical Sciences, University of Auckland. The peptides were prepared using Fmoc solid phase synthesis. Fmoc-Thr(tBu)-OH or Fmoc-Ala-OH pre-loaded to the HMPP linker and attached to in-house prepared aminomethyl PS resin 2.1 (using DIC in DMF). This was followed by alternating de-protection and coupling reactions using 5% piperazine containing 0.1 M 6-Cl-HOBt and HBTU and NMM respectively via automated Tribute Fmoc-SPPS. Resin cleavage using TFA afforded crude products, which underwent purification via semi-preparative RP-HPLC. Peptides were obtained in high purity (>95%) and with good yields (17%-46%). All alanine substituted analogues were miliQ H2O soluble (Table 5).
Peptide5 interacting site on the Connexin43 protein was determined using a competition assay. […]

[3] = molecular target: T3, Connexin43 plaques in ARPE-19 cells (Homo sapiens, UniProt P17302); assay: Immunocytochemistry and quantification of Cx43 plaques; format: cell-based; settings: 2- or 6-hour treatment, Peptide5 50-500 μM, LaCl3 and CBX 500 μM
T3 construct: a cell line with high endogenous expression of connexin43; endogenous in cells; host or cells: ARPE-19
T3 sequence (P17302 2-382 limits assumed): as above
Description: (§2) ARPE-19 cells were grown until confluent in 8-well glass chamber-slides (BD Falcon). Confluent monolayers of ARPE-19 cells were incubated at a final concentration of 50 to 500 μM Peptide5, 500 μM LaCl3 and 500 μM CBX in culture medium for 2 or 6 hours. Cells were fixed in 4% PFA (ProSciTech) at pH 7.4 for 10 min at room temperature, permeabilized with 0.05% Triton-X100 in PBS, and incubated in 10% normal goat serum to block non-specific labelling. Cells were rinsed three times with PBS containing 0.1 mM CaCl2 between each fixation, permeabilization, and blocking steps. Connexin43 polyclonal rabbit antibody (C6219, Sigma, 1:2000) was applied overnight, followed by a goat anti-rabbit Alexa Fluor® 568 secondary antibody (Invitrogen, 1:200) for 45 minutes. Nuclei were counterstained with DAPI (Invitrogen) at 10,000-fold dilution for 5 mins, and mounted with Citifluor™ mounting medium. Images were visualised and captured using an oil immersion lens (60× magnification, 1.35 numerical aperture) on an Olympus FV1000 upright confocal laser scanning microscope and Olympus FV10-ASW 4.0 software. The Transfluor feature in MetaXpress® Image acquisition and analysis software (Version 5.3.0.1, Molecular Devices) was used to quantify the total area of Connexin43 plaques per image.
as §2

**Q.** For RFKPSLCTTDEV [scrambled peptide], which “LY dye transfer, comparison in words” value [1] is on record?
**A.** no significant difference

**Q.** For SRPTEKT [mod-3], which “LY dye transfer, % of the untreated control” value ([1]; 2-hour exposure, untreated control 100±4.5%) is on record?
**A.** 77.6±4.8%

**Q.** And the “LY dye transfer, comparison in words” value [1]?
**A.** comparable to the native Peptide5

**Q.** And the “ATP release compared to injury control (in words)” value ([2]; hCMVEC, 100 μM, FIG. 4)?
**A.** not significantly different to the injury control

**Q.** What about the “ATP release compared to native Peptide5 (in words)” value ([2]; hCMVEC, 100 μM, FIG. 4) of the same compound?
**A.** significantly greater ATP release

**Q.** Which “solubility in miliQ H2O” value (Solubility in miliQ H2O) does the source give for `CC[C@H](C)[C@H](NC(=O)[C@H](Cc1ccc(O)cc1)NC(=O)[C@H](Cc1c[nH]c2ccccc12)NC(=O)[C@H](CCC(N)=O)NC(=O)[C@@H](NC(=O)[C@H](CC(C)C)NC(=O)[C@H](CC(C)C)NC(=O)[C@@H](N)Cc1ccccc1)[C@@H](C)CC)C(=O)N[C@@H](Cc1ccc(O)cc1)C(=O)NCC(=O)N[C@@H](Cc1ccccc1)C(=O)N[C@@H](CO)C(=O)N[C@@H](CC(C)C)C(=O)N[C@@H](CO)C(=O)N[C@@H](C)C(=O)N[C@H](C(=O)N[C@@H](Cc1ccc(O)cc1)C(=O)N[C@H](C(=O)N[C@@H](CS)C(=O)O)[C@@H](C)O)C(C)C` [EL2a, FLLIQ WYIYG FSLSA VYTC] (H-FLLIQWYIYGFSLSAVYTC-OH; N-terminus and C-terminus assumed) here?
**A.** soluble in miliQ H2O except for the EL2a sequence

**Q.** Which “Connexin43 labelling per cell compared to untreated control (in words)” value [3] does the source give for `[Cl][La]([Cl])[Cl]` [LaCl3, Lanthanum chloride, reference compound] here?
**A.** not significantly different to the control

**Q.** And the “ATP release, % of the injury control” value [2]?
**A.** 47.8±13.6%

**Q.** And the “ATP release compared to injury control (in words)” value ([2]; hCMVEC, 100 μM, FIG. 3)?
**A.** significantly reduced ATP release
